Reference: IntAct's records for PubMed 24530283

Biological target: fos_mouse Fos (UniProt P01101)
Sequence (P01101 whole entry): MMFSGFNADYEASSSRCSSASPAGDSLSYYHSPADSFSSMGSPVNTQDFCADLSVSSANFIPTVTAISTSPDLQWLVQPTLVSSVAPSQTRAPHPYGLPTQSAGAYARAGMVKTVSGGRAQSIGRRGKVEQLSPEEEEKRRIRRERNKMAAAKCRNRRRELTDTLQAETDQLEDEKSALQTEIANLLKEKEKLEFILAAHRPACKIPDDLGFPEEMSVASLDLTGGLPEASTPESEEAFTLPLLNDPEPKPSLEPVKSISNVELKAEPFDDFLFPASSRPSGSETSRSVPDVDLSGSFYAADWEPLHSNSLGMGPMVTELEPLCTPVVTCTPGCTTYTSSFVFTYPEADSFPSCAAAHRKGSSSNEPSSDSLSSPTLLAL

Sequence of Transcription factor MafB (Mus musculus), P54841 E269R (P54841 whole entry E269R): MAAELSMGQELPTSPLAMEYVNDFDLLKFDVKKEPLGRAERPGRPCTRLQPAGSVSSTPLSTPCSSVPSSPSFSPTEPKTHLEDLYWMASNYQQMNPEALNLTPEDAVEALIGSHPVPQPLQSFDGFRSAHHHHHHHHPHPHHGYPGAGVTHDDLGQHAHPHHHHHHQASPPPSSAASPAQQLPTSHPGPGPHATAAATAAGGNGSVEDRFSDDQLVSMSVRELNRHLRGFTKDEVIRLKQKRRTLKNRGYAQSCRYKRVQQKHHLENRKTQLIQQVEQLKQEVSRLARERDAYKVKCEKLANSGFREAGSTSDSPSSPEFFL
Sequence of Transcription factor MafB (Mus musculus), P54841 V277N (P54841 whole entry V277N): as the sequence (P54841 whole entry E269R) above, with R269E, V277N counted along it

| Substance | effect of a mutation on the interaction |
| --- | --- |
| Transcription factor MafB (Mus musculus), P54841 E269R | increasing interaction strength |
| Transcription factor MafB (Mus musculus), P54841 V277N | disrupting interaction strength |
